The target in assay [1] is MPT64 (Mycobacterium tuberculosis). The assay is described as follows: CAPILIA TB kit; pretreated patient sputum, sample number 5, smear 2+.
Assay [2] has the same target. As to the kind of experiment: CAPILIA TB kit; pretreated patient sputum, sample number 3, smear +.
The target is the same in assay [3]. As to the kind of experiment: CAPILIA TB kit; pretreated patient sputum, sample number 6, smear 3+.
For assay [4] the target is unchanged. As to the kind of experiment: CAPILIA TB kit; pretreated patient sputum, sample number 2, smear +.
The target is the same in assay [5]. As to the kind of experiment: CAPILIA TB kit; pretreated patient sputum, sample number 8, smear 3+.
The target is the same in assay [6]. The assay is described as follows: CAPILIA TB kit; pretreated patient sputum, sample number 1, smear +.
The target is the same in assay [7]. The assay is described as follows: CAPILIA TB kit; pretreated patient sputum, sample number 4, smear 2+.
The target is the same in assay [8]. The assay is described as follows: CAPILIA TB kit; pretreated patient sputum, sample number 7, smear 3+.

Turning to “CAPILIA TB (trade name; manufactured by TAUNS LABORATORIES INC.)”, the Absorbance in assay [1] stood at 0; in assay [2], 0; in assay [3], 0; in assay [4], 0; in assay [5], 23; in assay [6], 0. The Absorbance in assay [7] and in assay [8] was 0 in each case.

The values above are taken from patent US20100285506A1.
